We go through four substances from US7022323.

Test [1] concerns the target DC-SIGN (Dendritic Cell-Specific Intercellular adhesion molecule 3-Grabbing Nonintegrin), human, expressed on HeLa-DC-SIGN cells (homo sapien) (UniProt Q9NNX6). Nature of the test: flow cytometry on HeLa-DC-SIGN cells.
The target in test [2] is DC-SIGNR (DC-SIGN Related), human, expressed on HeLa-DC-SIGN-R cells (homo sapien) (UniProt Q9H2X3). As to the kind of experiment: flow cytometry on HeLa-DC-SIGN-R cells.
DC-SIGNR (DC-SIGN Related), human, expressed on HeLa-DC-SIGN-R cells (homo sapien), sequence (Q9H2X3 whole entry C368X): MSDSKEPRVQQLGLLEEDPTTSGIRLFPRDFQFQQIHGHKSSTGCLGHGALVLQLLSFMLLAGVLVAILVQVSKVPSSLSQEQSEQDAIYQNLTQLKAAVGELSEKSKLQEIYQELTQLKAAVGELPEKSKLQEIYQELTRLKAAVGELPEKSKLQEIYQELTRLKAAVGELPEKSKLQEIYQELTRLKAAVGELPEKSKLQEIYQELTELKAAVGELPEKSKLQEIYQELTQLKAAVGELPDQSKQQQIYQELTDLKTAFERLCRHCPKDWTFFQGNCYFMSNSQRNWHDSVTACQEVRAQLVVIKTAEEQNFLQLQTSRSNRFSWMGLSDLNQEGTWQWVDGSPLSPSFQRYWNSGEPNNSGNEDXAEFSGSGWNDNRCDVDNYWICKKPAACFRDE

DC-SIGN (Dendritic Cell-Specific Intercellular adhesion molecule 3-Grabbing Nonintegrin), human, expressed on HeLa-DC-SIGN cells (homo sapien), sequence (Q9NNX6 whole entry): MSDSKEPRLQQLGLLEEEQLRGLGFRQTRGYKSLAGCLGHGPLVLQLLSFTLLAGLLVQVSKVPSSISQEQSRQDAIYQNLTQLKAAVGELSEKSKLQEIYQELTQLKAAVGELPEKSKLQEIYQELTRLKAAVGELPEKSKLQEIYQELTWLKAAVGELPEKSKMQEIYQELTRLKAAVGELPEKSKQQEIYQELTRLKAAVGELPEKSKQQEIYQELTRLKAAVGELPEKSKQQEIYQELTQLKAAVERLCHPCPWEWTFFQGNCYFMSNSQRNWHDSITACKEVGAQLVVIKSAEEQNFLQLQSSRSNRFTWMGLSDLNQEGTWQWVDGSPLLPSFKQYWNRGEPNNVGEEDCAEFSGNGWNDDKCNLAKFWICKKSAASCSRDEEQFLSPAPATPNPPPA

In test [1], “120612 (612X), mouse IgG2a mAb that recognizes both DC-SIGN and DC-SIGN-R (BD Pharmingen) (antibody)” registered a % Positive Cells of 67.3% and a Mean fluorescence intensity of 46.6. In test [2], the % Positive Cells was found to be 94.8% and the Mean fluorescence intensity came to 102.

For the substance “120507 (507D), DC-SIGN-specific mouse IgG2b mAb (BD Pharmingen) (antibody)”, the % Positive Cells in test [1] is 90.6%; in test [2], 3.5%. Moreover, the Mean fluorescence intensity in test [1] is 81.1; in test [2], 17.1.

In test [1], “120604 (604L), DC-SIGN-R-specific mouse IgG2b mAb (BD Pharmingen) (antibody)” showed a % Positive Cells of 1.1% and a Mean fluorescence intensity of 14.2. In test [2], this substance returned a % Positive Cells of 96% and a Mean fluorescence intensity of 129.

In test [1], Isotype control (antibody) yielded a % Positive Cells of 1% and a Mean fluorescence intensity of 16.9. Also, in test [2], the % Positive Cells worked out at 2.8% and the Mean fluorescence intensity stood at 13.7.
